Experimental data taken from doi:10.1101/2024.05.01.590489 (bioRxiv, 2024).

B1: mAb2-2 (antibody, V domains shown)
VH: QVQLQESGPGLVKPSVTLSLTCTVSGDSISTYYWSWVRQPPGKGLEWIGYIYYSGNTNYNPSLKSRVTMSVDTSKNQFSLKLNSVTAADTAVYYCARTHHDYGDYRPSYYFDYWGQGTLVTVSS
VL: QSALTQPASVSGSPGQSITISCTGTSSDVGAYDYVSWYQQHPGKAPKLMIYDVSNRPSSGVSNRFSGSKSGNTASLTISGLQAEDEADYYCSSYTSSSTVILGGGTKLTVL
B2: mAb1-2 (antibody, V domains shown)
VH: EVQLVESGGGLVQPGGSLRLSCAASGFIFSNYWMSWVRQAPGKGPEWVANIKQDGSANHYVDSVKGRFTISRDNAKNSLYLQMNSLRAEDTAVYYCAREAYQDWNYDYWGQGTLVTVSS
VL: DIQMTQSPSSLSASVGDRVTVTCRASEFISRYLNWYQQKPGKAPKVLIYAASSLQSGVPSRFSGSGSGTDFTLTISSLQPEDFATYYCQQSYSTPYTFGQGTKLEIK
B3: mAb2-4 (antibody, V domains shown)
VH: EVQLLESGGGLVHPGGSLRLSCAASGFPFSNFAMSWVRQAPGKGLEWVSTISGSSGSTYYADSVRGRFTISRDYSKNTVYLEMNSLRADDTAIYYCAKDRMITFGEVIVKHYDAFEIWGQGTRVAV
VL: DIQMTQSPSSLSASVGDRVTITCRASQTISTNVNWYQQKPGKAPKLLIYAASSLQSGVPSRFSGSGSGTDFTLTISSLQPEDFATFYCQQSYSAPLTFGEGTKV
B4: mAb1-4 (antibody, V domains shown)
VH: QVQVVESGAEVKKPGASVKVSCKASGYAFTTYYMHWVRQAPGQGLEWMGLINPSGDSITYAQRFQGRVTMTKDTSTSTVYMELSSLRSEDTAIYYCARDPNVAFYYGSGNYYKDNAMDVWGQGTTVTVSS
VL: not shown
B5: mAb2-5 (antibody, V domains shown)
VH: EVQLVESGGGLVKPGGSPRLSCAASGFNFGSYSMNWVRQAPGKGLEWVSSISSSSSYIYYADSVKGRFTISRDNAKHSLYLQVNSLRAEDTAVYYCARDPTTYGYNSAWDKKGWYFDLWGRGTLLTVS
VL: VLTQPPSVSAAPGQMVTISCSGSSSNIGNDYISWYQQLPGTAPKLLIYDNNERPSGIPDRFSGSKSGTSATLGITGVQTGDEADYYCGTWDSSLSAWVFGEGTKLTVV
B6: mAb2-3 (antibody, V domains shown)
VH: VQLVESGGGLVKPGGSLRLSCATSGFTFSDYYMSWIRQAPGKGLEWVSYISSSGSTIYYADSVKGRFTMSRDNAKNSLFLRMNSLRAEDTAVYYCARDQITVDREVIRAHYYYGMDVWGQGTTVTVS
VL: DIQMTQSPSSVSASVGDRVTITCRASQGINSYLAWYQQKPGKAPKLLIYAASSLESGVPSRFSGSGSGTDFTLTISSLQPEDFATYYCQQANSFPLTFGGGTKVDI
B7: mAb1-1 (antibody, V domains shown)
VH: EVQLVESGGGLVKPGGSLRLSCAASGVPFSDAWMNWVRQAPGKGLEWVGRIKSKKDGGTADYAAPVKGRFSISRDDSKKMLYLHMNSLKTEDTAVYYCTTEPSGYCSNGLCYTGNYWGQGTLVTVSS
VL: QPVLTQSSSASASLGSSVKLTCTLSSGHITYIIAWHQQQPGKAPRYLMKLEDSGSYNKGSGVPDRFSGSSSGADRYLTISNLQFEDEADYYCETWDSYTRVFGGGTKLT
B8: mAb1-3 (antibody, V domains shown)
VH: VQLVESGGGVVQPGRSLRLSCAASGFSFSSFVFHWVRQAPGKGLEWVAVISYDGSNKNYADSVKGRFTISRDNSKNTLFLQMNSLSADDTAVYYCARGAICSSTTCYLGDSYYFYGMDVWGQGTTVTVSS
VL: LTQPPSVSGAPGQRVTISCTGSRSNIGAGYDVHWYQQLPGTAPKLLIYGNSNRPSGVPDRFSGSKSGTSASLAITGLQTDDEADYYCQSYDSSLSGSVFGGGTKLTVL
B9: mAb1-7 (antibody, V domains shown)
VH: QVQLQESGPGLVKPSETLSLTCTVSGDSIRSYYWSWIRQPPGKGLEWIGHIYYSGSTNYKPSLKSRATILVDTSKNQFSLKLRSVTAADTAVYYCAREMTGVAGRGWDHWGQGTLVTVSS
VL: ALTQPPSASGTPGQRVTISCSGSSSNIGSNTVNWYQQLPGTAPKLLIFINNQRPSGVPDRFSGSKSGTSASLAISGLQSEDEADYYCTTWDGSLNGYVFGTRTEVTVL
B10: mAb1-5 (antibody, V domains shown)
VH: EVQLVESGGGLVKPGGSLRLSCAASGFMFSSYSMNWVRQAPGKGLEWVSSISRSDSYIDYADSVKGRFTISRDTAMNVLYLQMDSLRAEDTGVYYCARTHVFNMFREVINDDYYGMDVWGQGTTVTVS
VL: ALTQPASVSGSPGQSITISCTGTSSDFGIYNSVSWYQHHPGKAPKLMIFGVSNRPSGVSNRFSGSKSGNTASLSISGLQAEDEADYYCSSFTARSTVVFGGGTKLTVL
B11: mAb2-1 (antibody, V domains shown)
VH: EVQLLESGGGLVQPGKSLRLSCAASGFSFSNYAMSWVRQAPGKGLEWVSGISGSGGSTNYAESVRGRFTISRDNSKNTLYLEMNSLRVEDTAVYYCAKGMSYYDRSGYFWAKYHYGMDVWGQGITVTVSS
VL: not shown
B12: Fab2-6 (Fab, V domains shown)
VH: VQLLESGGALVQPGGSLRLSCAASGFSFSNYAMSWVRQAPGKGLEWVSTISASGGTTYFADSVKGHFTISRDNSKNTLYLQMDSLRAEDTAVYYCAKDPNYYDLSGYFLGGYYFDYWGQGTLVTVSS
VL: EIVLTQSPGTLSLSPGERATLSCRASQSVRSSYLAWYQQKPGQAPRLLIYGASSRATDIPDRFSGSGSGTDFTLTISRLEPEDFAVYYCQQYGTSPAFGGGTKV
B13: Fab3-4 (Fab, V domains shown)
VH: AVESGGGLVKPGGPLRLSCAASGFSLSDNYMTWIRQAPGKGLEWVSYISSSGSFINYADSVKGRFTISRDNAKNSLYLQMNSLRAEDTAVYYCARVLSSGGLTTSWRALWYFDVWGRGTLVTVS
VL: TVVTQEPSFSVSPGGTVTLTCGLTSGSVSTSYYPSWYQQTPGQTPRTLIYSTNIRSSGVPDRFSGSILGNKAALTITGAQADDECDYYCVLYMGSGIWVFGGGTKLTVL
B14: Fab2-4 (Fab, V domains shown)
VH: B3 VH
VL: B3 VL
B15: Fab2-3 (Fab, V domains shown)
VH: B6 VH
VL: B6 VL
B16: Fab2-1 (Fab, V domains shown)
VH: B11 VH
VL: not shown

molecular target: T1, AAV9 capsid (adeno-associated virus serotype 9 (AAV9), UniProt Q6JC40); test: far-Western, overlay or dot blot

Binder | binding result
B1 | binds
B2 | binds
B3 | binds
B4 | binds
B5 | binds
B6 | binds
B7 | binds
B8 | binds
B9 | binds
B10 | binds
B11 | binds

molecular target: T1, AAV9 capsid; test: cryo-EM structure

Binder | binding result
B12 | binds
B13 | binds
B14 | binds
B15 | binds
B16 | binds
